Experimental data taken from publication PMC8178753.

Assays:
[1] = tested on: PkKKT2a central domain (551-679) (Perkinsela sp. CCAP 1560/4); test: fluorescence anisotropy; conditions: fluorescein (6-FAMK) in place of T37 of forward strand; 25 mM Hepes pH 7.5, 50 mM NaCl, 1 mM TCEP; FA: 1 nM FAM-dsDNA, 20 min RT, read at 25°C; EMSA: 200 nM dsDNA, 0.78-30 µM protein, 30 min RT, native PAGE at 4°C
[2] = tested on: designed zinc finger (Jantz and Berg, 2010) (synthetic construct); test: fluorescence anisotropy; conditions: fluorescein (6-FAMK) in place of T9 of reverse strand; 25 mM Hepes pH 7.5, 50 mM NaCl, 1 mM TCEP; FA: 1 nM FAM-dsDNA, 20 min RT, read at 25°C; EMSA: 200 nM dsDNA, 0.78-30 µM protein, 30 min RT, native PAGE at 4°C

| Sequence | Kd [1] [nM] | Kd [2] [nM] |
| --- | --- | --- |
| AGGTAACTAGAAGAATTGTAATATTCTAAATGTTGATCCATTTGAATCAT (double strand) [50 mer 26% GC FAM (BA2216)] | 500 |  |
| CAATATGTAAGGTGTTTTGGTGTAAAACACGCATTCTTGCATAACATGCA (double strand) [50 mer CEN FAM (BA1674)] | 500 |  |
| CGATCGTTGAGGCAGAACCTGATCA (double strand) [designed DNA FAM (BA3083)] |  | 8 |
| CGCAGATCCGCGGGGCCCGTGCCGACGCGCGGGCATTGTCCGTGAGGTGA (double strand) [50 mer 74% GC FAM (BA2218)] | 500 |  |
